Source: PMC11338267, “Phosphoglycerate kinase is a central leverage point in Parkinson’s disease–driven neuronal metabolic deficits” (Science Advances, 2024)

Molecular target: T1, untagged PGK1 (phosphoglycerate kinase 1), cleaved from His-SUMO-PGK1 (UniProt P00558 1-417)
T1 construct: phosphoglycerate kinase 1 (PGK1), full-length protein; also called His-tagged SUMO-PGK1; cleaved PGK1; source: E. coli BL21 (DE3), purified (Ni-NTA, SUMO protease cleavage, second Ni-NTA flow-through, Superdex200 gel filtration)
T1 sequence (looked up): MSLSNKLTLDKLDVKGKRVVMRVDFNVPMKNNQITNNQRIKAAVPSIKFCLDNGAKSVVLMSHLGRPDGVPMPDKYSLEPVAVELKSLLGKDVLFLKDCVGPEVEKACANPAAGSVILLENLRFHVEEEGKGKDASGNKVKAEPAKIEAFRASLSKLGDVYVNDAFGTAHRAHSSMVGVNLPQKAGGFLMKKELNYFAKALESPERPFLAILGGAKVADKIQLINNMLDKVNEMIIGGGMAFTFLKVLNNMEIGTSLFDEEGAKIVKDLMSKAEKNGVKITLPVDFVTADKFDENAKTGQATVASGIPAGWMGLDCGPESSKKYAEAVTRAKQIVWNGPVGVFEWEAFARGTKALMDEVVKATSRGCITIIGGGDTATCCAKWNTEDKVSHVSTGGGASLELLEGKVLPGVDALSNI
Assay: MST; His-DJ-1 labelled with RED-tris-NTA (10 ul of 100 nM added to each sample), PGK1 titrated in a 16-step 1:1 serial dilution from a 152 uM stock; PBS-T buffer; 30 min at room temperature in the dark; Monolith NT.115, 40% LED, medium MST power
Conditions: both partners purified

B1: His-tagged DJ-1 full-length protein (natural protein, UniProt Q99497 1-189, looked up)
chain: MASKRALVILAKGAEEMETVIPVDVMRRAGIKVTVAGLAGKDPVQCSRDVVICPDASLEDAKKEGPYDVVVLPGGNLGAQNLSESAAVKEILKEQENRKGLIAAICAGPTALLAHEIGFGSKVTTHPLAKDKMMNGGHYTYSENRVEKDGLILTSRGPGTSFEFALAIVEALNGKEVAAQVKAPLVLKD
notes: DJ-1 (product of the PARK7 gene), full-length protein; For MST the His tag was labelled non-covalently with the dye RED-tris-NTA; also called His-DJ-1; PARK7/DJ-1; source: E. coli BL21 (DE3), purified (Ni-NTA, Superdex200 gel filtration)
Kd: ~15 µM
